In doi:10.1101/2020.01.29.926220v1:

Experiments:
Experiment in all cases: spectrophotometric hydrolysis, initial rates, Hanes-Woolf
Assay type in all cases: biochemical, Yersinia mollaretii
Conditions in all cases: 50 mM MES pH 6.0, 30°C
[1] = system: C[C@@H](O)[C@H]1C(=O)N2C(C(=O)O)=C(S[C@@H]3CN[C@H](C(=O)Nc4cccc(C(=O)O)c4)C3)[C@H](C)[C@H]12
[2] = system: C[C@@H](O)[C@H]1C(=O)N2C(C(=O)O)=C(SCCN=CN)C[C@H]12
[3] = system: C[C@@H](O)[C@H]1C(=O)N2C(C(=O)[O-])=C(SC3Cn4cnc[n+]4C3)[C@H](C)[C@H]12
[4] = system: C[C@@H](O)[C@H]1C(=O)N2C(C(=O)O)=C(S[C@@H]3CN[C@H](C(=O)N(C)C)C3)[C@H](C)[C@H]12
[5] = system: C[C@@H](O)[C@H]1C(=O)N2C(C(=O)O)=C(S[C@@H]3CN[C@H](CNS(N)(=O)=O)C3)[C@H](C)[C@H]12

Question: YEM-1 (Yersinia mollaretii ATCC 43969) was tested. Which kcat [1] did it give?
Answer: >400 s⁻¹

Question: What about the Km [2] of the same substance?
Answer: 160 µM

Question: And the kcat [2]?
Answer: 480 s⁻¹

Question: And the kcat [3]?
Answer: >16 s⁻¹

Question: What about the kcat [4] of the same substance?
Answer: >400 s⁻¹

Question: What about the kcat [5] of the same substance?
Answer: >100 s⁻¹
